In article PMC4506499:

Key:
[1] = target: T1, Human Upf1-CH-HD (115-914 amino acids) (human) (UniProt Q92900)
T1 sequence: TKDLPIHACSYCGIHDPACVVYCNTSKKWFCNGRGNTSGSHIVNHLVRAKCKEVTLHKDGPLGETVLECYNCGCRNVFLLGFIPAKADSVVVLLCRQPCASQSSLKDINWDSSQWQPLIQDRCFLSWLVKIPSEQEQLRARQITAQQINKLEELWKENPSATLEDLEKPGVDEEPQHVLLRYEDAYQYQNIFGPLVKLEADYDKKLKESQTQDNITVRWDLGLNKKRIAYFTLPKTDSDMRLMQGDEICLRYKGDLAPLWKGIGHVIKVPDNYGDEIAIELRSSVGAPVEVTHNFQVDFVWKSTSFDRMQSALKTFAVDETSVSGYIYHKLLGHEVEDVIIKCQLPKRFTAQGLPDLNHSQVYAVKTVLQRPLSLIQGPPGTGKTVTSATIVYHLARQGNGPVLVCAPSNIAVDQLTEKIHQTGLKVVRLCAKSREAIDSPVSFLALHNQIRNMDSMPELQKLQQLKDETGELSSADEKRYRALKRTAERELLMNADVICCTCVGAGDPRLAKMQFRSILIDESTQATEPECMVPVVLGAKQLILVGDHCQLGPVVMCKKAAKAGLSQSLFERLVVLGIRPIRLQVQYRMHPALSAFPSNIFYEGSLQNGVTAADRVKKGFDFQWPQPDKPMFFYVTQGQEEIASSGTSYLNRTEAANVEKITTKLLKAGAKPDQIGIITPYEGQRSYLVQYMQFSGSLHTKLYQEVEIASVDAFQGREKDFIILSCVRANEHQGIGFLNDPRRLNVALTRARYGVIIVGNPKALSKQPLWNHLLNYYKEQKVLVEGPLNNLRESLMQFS

[2] = target: T1, Human Upf1-CH-HD (115-914 amino acids) (human); remark: listed apart in the source
[3] = target: T1, Human Upf1-CH-HD (115-914 amino acids) (human); remark: listed apart in the source

- processivity factor fp (enzymes reaching the hairpin apex over total bursts), magnetic tweezers on the 1.2 kb DNA hairpin (fraction (24 of 25 bursts)) [1]: 0.96
- activity ratio Ac=u/(u+b) (unwinding events over unwinding plus binding events), magnetic tweezers on a DNA hairpin; Upf1-CH-HD alone Ac=49% [2]: 81%
- share of Upf1-CH-HD/Upf2 binding events with a normal rising edge but a falling edge interrupted by blocking (magnetic tweezers, DNA hairpin) [3]: 76%
Substance: Human Upf2 (761-1227 amino acids) (from UniProt Q9HAU5 761-1227) (domain or fragment)
